Measurements taken from paper PMC3592467 (Nucleic Acids Research, 2012).

B1: ZNF592 (natural protein)
chain: MGDMKTPDFDDLLAAFDIPDPTSLDAKEAIQTPSEENESPLKPPGICMDESVSLSHSGSAPDVPAVSVIVKNTSRQESFEAEKDHITPSLLHNGFRGSDLPPDPHNCGKFDSTFMNGDSARSFPGKLEPPKSEPLPTFNQFSPISSPEPEDPIKDNGFGIKPKHSDSYFPPPLGCGAVGGPVLEALAKFPVPELHMFDHFCKKEPKPEPLPLGSQQEHEQSGQNTVEPHKDPDATRFFGEALEFNSHPSNSIGESKGLARELGTCSSVPPRQRLKPAHSKLSSCVAALVALQAKRVASVTKEDQPGHTKDLSGPTKESSKGSPKMPKSPKSPRSPLEATRKSIKPSDSPRSICSDSSSKGSPSVAASSPPAIPKVRIKTIKTSSGEIKRTVTRILPDPDDPSKSPVGSPLGSAIAEAPSEMPGDEVPVEEHFPEAGTNSGSPQGARKGDESMTKASDSSSPSCSSGPRVPKGAAPGSQTGKKQQSTALQASTLAPANLLPKAVHLANLNLVPHSVAASVTAKSSVQRRSQPQLTQMSVPLVHQVKKAAPLIVEVFNKVLHSSNPVPLYAPNLSPPADSRIHVPASGYCCLECGDAFALEKSLSQHYGRRSVHIEVLCTLCSKTLLFFNKCSLLRHARDHKSKGLVMQCSQLLVKPISADQMFVSAPVNSTAPAAPAPSSSPKHGLTSGSASPPPPALPLYPDPVRLIRYSIKCLECHKQMRDYMVLAAHFQRTTEETEGLTCQVCQMLLPNQCSFCAHQRIHAHKSPYCCPECGVLCRSAYFQTHVKENCLHYARKVGYRCIHCGVVHLTLALLKSHIQERHCQVFHKCAFCPMAFKTASSTADHSATQHPTQPHRPSQLIYKCSCEMVFNKKRHIQQHFYQNVSKTQVGVFKCPECPLLFVQKPELMQHVKSTHGVPRNVDELSSLQSSADTSSSRPGSRVPTEPPATSVAARSSSLPSGRWGRPEAHRRVEARPRLRNTGWTCQECQEWVPDRESYVSHMKKSHGRTLKRYPCRQCEQSFHTPNSLRKHIRNNHDTVKKFYTCGYCTEDSPSFPRPSLLESHISLMHGIRNPDLSQTSKVKPPGGHSPQVNHLKRPVSGVGDAPGTSNGATVSSTKRHKSLFQCAKCSFATDSGLEFQSHIPQHQVDSSTAQCLLCGLCYTSASSLSRHLFIVHKVRDQEEEEEEEAAAAEMAVEVAEPEEGSGEEVPMETRENGLEECAGEPLSADPEARRLLGPAPEDDGGHNDHSQPQASQDQDSHTLSPQV
B2: ZMYND8 (natural protein)
chain: MDISTRSKDPGSAERTAQKRKFPSPPHSSNGHSPQDTSTSPIKKKKKPGLLNSNNKEQSELRHGPFYYMKQPLTTDPVDVVPQDGRNDFYCWVCHREGQVLCCELCPRVYHAKCLRLTSEPEGDWFCPECEKITVAECIETQSKAMTMLTIEQLSYLLKFAIQKMKQPGTDAFQKPVPLEQHPDYAEYIFHPMDLCTLEKNAKKKMYGCTEAFLADAKWILHNCIIYNGGNHKLTQIAKVVIKICEHEMNEIEVCPECYLAACQKRDNWFCEPCSNPHPLVWAKLKGFPFWPAKALRDKDGQVDARFFGQHDRAWVPINNCYLMSKEIPFSVKKTKSIFNSAMQEMEVYVENIRRKFGVFNYSPFRTPYTPNSQYQMLLDPTNPSAGTAKIDKQEKVKLNFDMTASPKILMSKPVLSGGTGRRISLSDMPRSPMSTNSSVHTGSDVEQDAEKKATSSHFSASEESMDFLDKSTASPASTKTGQAGSLSGSPKPFSPQLSAPITTKTDKTSTTGSILNLNLDRSKAEMDLKELSESVQQQSTPVPLISPKRQIRSRFQLNLDKTIESCKAQLGINEISEDVYTAVEHSDSEDSEKSDSSDSEYISDDEQKSKNEPEDTEDKEGCQMDKEPSAVKKKPKPTNPVEIKEELKSTSPASEKADPGAVKDKASPEPEKDFSEKAKPSPHPIKDKLKGKDETDSPTVHLGLDSDSESELVIDLGEDHSGREGRKNKKEPKEPSPKQDVVGKTPPSTTVGSHSPPETPVLTRSSAQTSAAGATATTSTSSTVTVTAPAPAATGSPVKKQRPLLPKETAPAVQRVVWNSSSKFQTSSQKWHMQKMQRQQQQQQQQNQQQQPQSSQGTRYQTRQAVKAVQQKEITQSPSTSTITLVTSTQSSPLVTSSGSMSTLVSSVNADLPIATASADVAADIAKYTSKMMDAIKGTMTEIYNDLSKNTTGSTIAEIRRLRIEIEKLQWLHQQELSEMKHNLELTMAEMRQSLEQERDRLIAEVKKQLELEKQQAVDETKKKQWCANCKKEAIFYCCWNTSYCDYPCQQAHWPEHMKSCTQSATAPQQEADAEVNTETLNKSSQGSSSSTQSAPSETASASKEKETSAEKSKESGSTLDLSGSRETPSSILLGSNQGSDHSRSNKSSWSSSDEKRGSTRSDHNTSTSTKSLLPKESRLDTFWD

Target: T1, MBD3-GFP (UniProt O95983 1-291)
T1 sequence: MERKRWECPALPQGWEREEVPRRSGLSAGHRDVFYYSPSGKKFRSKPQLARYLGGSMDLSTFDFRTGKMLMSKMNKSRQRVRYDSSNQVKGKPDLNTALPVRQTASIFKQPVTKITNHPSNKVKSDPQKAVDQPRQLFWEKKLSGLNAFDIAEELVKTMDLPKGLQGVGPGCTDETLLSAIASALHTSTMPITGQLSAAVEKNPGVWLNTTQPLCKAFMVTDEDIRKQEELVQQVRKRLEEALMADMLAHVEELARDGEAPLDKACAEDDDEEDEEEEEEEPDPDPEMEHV
Assay: affinity purification with mass spectrometry

Binder	stoichiometry N
B1	~0.01 relative to MBD3
B2	~0.01 relative to MBD3
